Laboratory results from patent US20230203162A1 (NUMAB THERAPEUTICS, published 2023).
Numbering of substitutions follows the chain as printed. Numbers in names are those of the source.

B1: PRO2660 (MATCH4) (other)
chain 1: DIQMTQSPSSLSASVGDRVTITCQASESIYSSLAWYQQKPGKAPKLLIYLASTLASGVPSRFSGSGSGTDFTLTISSLQPEDFATYYCQSTDYTTSTHRNSFGTGTKVTVLGGGGGSGGGGSGGGGSGGGGSEVQLVESGGGLVQPGGSLRLSCAASGFSFSTTYYMCWVRQAPGKGLEWIGCTNTASSVRTYYATWAKGRFTISRDNSKNTVYLQMNSLRAEDTAVYYCARDMGFADYALNLWGQGTLVTVSSGGGGSGGGGSEVQLVESGGGLVQPGGSLRLSCAASGFSLSSYDMSWVRQAPGKGLAWIGASYASGPTYYASWAKGRFTISRDNSKNTVYLQMNSLRAEDTATYFCARGGWTGTSHSNIWGQGTLVTVSSGGGSGGGSGGGSGEVQLVESGGGLVQPGGSLRLSCAASGFSLSSYAMNWVRQAPGKCLEWIGHINAGDIAYYATWAKGRFTISRDNSKNTVYLQMNSLRAEDTAVYFCARGAGGFSTGPFKLWGQGTLVTVSS
chain 2: DIQMTQSPSSLSASVGDRVTITCQASESIYSSLAWYQQKPGKAPKLLIYLASTLASGVPSRFSGSGSGTDFTLTISSLQPEDFATYYCQSTDYTTSTHRNSFGTGTKVTVLGGGGGSGGGGSGGGGSGGGGSEVQLVESGGGLVQPGGSLRLSCAASGFSFSTTYYMCWVRQAPGKGLEWIGCTNTASSVRTYYATWAKGRFTISRDNSKNTVYLQMNSLRAEDTAVYYCARDMGFADYALNLWGQGTLVTVSSGGGGSGGGGSAFELTQSPSSLSASVGDRVTITCQASESINSRLAWYQQKPGQPPKLLIYDASDLTSGVPSRFSGSGSGTDFTLTISSLQPEDFATYYCQGYGGSSTTTFGCGTKLTVLGGGSGGSDIQMTQSPSSLSASVGDRVTITCQSSQSVFSNNYLAWFQQKPGQSPKRLIYSASTLASGVPSRFSGSGSGTDFTLTISSLQPEDFATYYCLGSYACSSADCYVFGTGTKVTVLG
notes: Heterodimer
B2: PRO2567 (MATCH4) (other)
chain 1: AFELTQSPSSLSASVGDRVTITCQASESINSRLAWYQQKPGQPPKLLIYDASDLTSGVPSRFSGSGSGTDFTLTISSLQPEDFATYYCQGYGGSSTTTFGTGTKLTVLGGGGGSGGGGSGGGGSGGGGSEVQLVESGGGLVQPGGSLRLSCAASGFSLSSYAMNWVRQAPGKGLEWIGHINAGDIAYYATWAKGRFTISRDNSKNTVYLQMNSLRAEDTAVYFCARGAGGFSTGPFKLWGQGTLVTVSSGGGGSGGGGSEVQLVESGGGLVQPGGSLRLSCAASGFSLSSYDMSWVRQAPGKGLAWIGASYASGPTYYASWAKGRFTISRDNSKNTVYLQMNSLRAEDTATYFCARGGWTGTSHSNIWGQGTLVTVSSGGGSGGGSGGGSGQSQLVESGGGLVQPGGSLRLSCAVSGFSLSSYAMGWVRQAPGKCLEYIGYISKIGTTYYASWAKGRFTISKDNSKNTVYLQMNSLRAEDTAVYFCARGSSSGGYLDDGFDPWGQGTLVTVSS
chain 2: ALQMTQSPSSLSARVGDRVTIKCQASQSISNYLAWYQQKPGKPPKFLIYDASDLASGVPSRFSGSGSGRDFTLTISSLQPEDFATYYCQQVYDSNNVENVFGCGTKVTVLGGGGGSGGGGSGGGGSGGGGSQSQLVESGGGLVQPGGSLRLSCAVSGFSLSSYAMGWVRQAPGKCLEYIGYISKIGTTYYASWAKGRFTISKDNSKNTVYLQMNSLRAEDTAVYFCARGSSSGGYLDDGFDPWGQGTLVTVSSGGGGSGGGGSALQMTQSPSSLSARVGDRVTIKCQASQSISNYLAWYQQKPGKPPKFLIYDASDLASGVPSRFSGSGSGRDFTLTISSLQPEDFATYYCQQVYDSNNVENVFGCGTKVTVLGGGSGGSDIQMTQSPSSLSASVGDRVTITCQSSQSVFSNNYLAWFQQKPGQSPKRLIYSASTLASGVPSRFSGSGSGTDFTLTISSLQPEDFATYYCLGSYACSSADCYVFGTGTKVTVLG
notes: Heterodimer
B3: anti-MSLN scFv PRO2306 (scFv)
scFv: ALQMTQSPSSLSARVGDRVTIKCQASQSISNYLAWYQQKPGKPPKFLIYDASDLASGVPSRFSGSGSGRDFTLTISSLQPEDFATYYCQQVYDSNNVENVFGTGTKVTVLGGGGGSGGGGSGGGGSGGGGSQSQLVESGGGLVQPGGSLRLSCAVSGFSLSSYAMGWVRQAPGKGLEYIGYISKIGTTYYASWAKGRFTISKDNSKNTVYLQMNSLRAEDTAVYFCARGSSSGGYLDDGFDPWGQGTLVTVSS
notes: also called 54-32-A07-sc06; PRO1925-S14R-T87R-T22K
B4: anti-MSLN scFv PRO1925 (scFv)
scFv: B3 scFv with R14S, K22T, P59S, R69T
notes: also called 54-32-A07-sc02
B5: anti-MSLN scFv PRO2309 (scFv)
scFv: B3 scFv with T103C, G175C
notes: VL/VH interdomain disulfide variant; also called 54-32-A07-sc09; PRO1925-S14R-T87R-T22K-DIS
B6: PRO2562 (MATCH4) (other)
chain 1: ALQMTQSPSSLSARVGDRVTIKCQASQSISNYLAWYQQKPGKPPKFLIYDASDLASGVPSRFSGSGSGRDFTLTISSLQPEDFATYYCQQVYDSNNVENVFGCGTKVTVLGGGGGSGGGGSGGGGSGGGGSQSQLVESGGGLVQPGGSLRLSCAVSGFSLSSYAMGWVRQAPGKCLEYIGYISKIGTTYYASWAKGRFTISKDNSKNTVYLQMNSLRAEDTAVYFCARGSSSGGYLDDGFDPWGQGTLVTVSSGGGGSGGGGSEVQLVESGGGLVQPGGSLRLSCAASGFSLSSYDMSWVRQAPGKGLAWIGASYASGPTYYASWAKGRFTISRDNSKNTVYLQMCSLRAEDTATYFCARGGWTGTSHSNIWGQGTLVTVSSGGGSGGGSGGGSGEVQLVESGGGLVQPGGSLRLSCAASGFSLSSYAMNWVRQAPGKCLEWIGHINAGDIAYYATWAKGRFTISRDNSKNTVYLQMNSLRAEDTAVYFCARGAGGFSTGPFKLWGQGTLVTVSS
chain 2: ALQMTQSPSSLSARVGDRVTIKCQASQSISNYLAWYQQKPGKPPKFLIYDASDLASGVPSRFSGSGSGRDFTLTISSLQPEDFATYYCQQVYDSNNVENVFGCGTKVTVLGGGGGSGGGGSGGGGSGGGGSQSQLVESGGGLVQPGGSLRLSCAVSGFSLSSYAMGWVRQAPGKCLEYIGYISKIGTTYYASWAKGRFTISKDNSKNTVYLQMNSLRAEDTAVYFCARGSSSGGYLDDGFDPWGQGTLVTVSSGGGGSGGGGSAFELTQSPSSLSASVGDRVTITCQASESINSRLAWYQQKPGQPPKLLIYDASDLTSGVPSRFSGSGSGTDFTLTISCLQPEDFATYYCQGYGGSSTTTFGCGTKLTVLGGGSGGSGGSGGSGDIQMTQSPSSLSASVGDRVTITCQSSQSVFSNNYLAWFQQKPGQSPKRLIYSASTLASGVPSRFSGSGSGTDFTLTISSLQPEDFATYYCLGSYACSSADCYVFGTGTKVTVLG
notes: Heterodimer
B7: anti-MSLN scFv PRO1922 (scFv)
scFv: DIQMTQSPSSLSASVGDRVTITCQASESIYSSLAWYQQKPGKAPKLLIYLASTLASGVPSRFSGSGSGTDFTLTISSLQPEDFATYYCQSTDYTTSTHRNSFGTGTKVTVLGGGGGSGGGGSGGGGSGGGGSEVQLVESGGGLVQPGGSLRLSCAASGFSFSTTYYMCWVRQAPGKGLEWIGCTNTASSVRTYYATWAKGRFTISRDNSKNTVYLQMNSLRAEDTAVYYCARDMGFADYALNLWGQGTLVTVSS
notes: also called 54-21-H03-sc01

What was measured:
[1] = target: T1, plasma-membranous human MSLN on cell lines (H226, HPAC, H292, OVCAR-3, MeT-5A) (human, UniProt Q13421 296-598); assay: cell-based or functional assay
[2] = target: soluble mesothelin (sMSLN); assay: cell-based or functional assay
[3] = target: T2, human recombinant CD3ε protein (Sino Biological) (human, UniProt P07766 23-126); assay: SPR, CD3ε amine-coupled to CM5, antibody injected
T2 construct: Bought protein; also called recombinant human CD3ε; human CD3ε

[4] = target: T1, plasma-membranous human MSLN on cell …; assay: flow cytometry on H226 cells, protein L-PE, 4PL fit
[5] = target: T1, plasma-membranous human MSLN on cell …; assay: flow cytometry on Met-5A cells, protein L-PE, 4PL fit
[6] = target: T1, plasma-membranous human MSLN on cell …; assay: flow cytometry on OVCAR-3 cells, protein L-PE, 4PL fit
[7] = target: human serum albumin (hSA, Sigma-Aldrich A3782) (human, UniProt P02768 25-609); assay: SPR, hSA amine-coupled to CM5, antibody injected, pH 5.5, 1:1 Langmuir
[8] = target: T3, recombinant human MSLN (purchased from Peprotech) (human, UniProt Q13421 296-598, limits assumed); assay: SPR (Biacore T200), human MSLN; which of the two formats (MSLN immobilized / antibody captured) not given
T3 construct: Bought protein; also called recombinant human mesothelin

[9] = target: T1, plasma-membranous human MSLN on cell …; assay: cELISA on H226 cells, HRP-Protein L
[10] = target: T3, recombinant human MSLN (purchased from …); assay: SPR, MSLN immobilized on CM5, scFv as analyte, 1:1 Langmuir
[11] = target: biotinylated MSLN (human MSLN in the MSLN/MUC16 competition ELISA) (human, UniProt Q13421 296-598, limits assumed, biotinylated); assay: competition ELISA, scFv titrated with biotinylated MSLN; competitor coated MUC16

Binder	Kd [3]	EC50 [4]	max. binding (MFI) [4]	EC50 [5]	max. binding (MFI) [5]	EC50 [6]	max. binding (MFI) [6]	Kd [7]	koff [7]	kon [7]	EC50 [9]	rel. EC50 (EC50, Amatuximab/EC50, scFv) [9]	rel. Maximum binding (OD450-690 nm, scFv/OD450-690 nm, Amatuximab) [9]	Kd [10]	koff [10]	kon [10]	also measured
B1	5.71 nM	1.08 nM	686000 MFI	0.157 nM	14500 MFI	10.7 nM	198000 MFI	5.71 nM	0.0016 s⁻¹	280000 M⁻¹ s⁻¹	–	–	–	–	–	–	Fold-diff Window (mean Met-5A EC50 / mean H226 EC50) [1]: 1.7 fold; average mean H226 EC50, cell killing (LDH release) [1]: 0.0285 nM; average mean Met-5A EC50, cell killing (LDH release) [1]: 0.0485 nM; Delta 0-50 ng/mL sMSLN (x-fold change in H226 killing potency) [2]: 12 fold; Delta 0-500 ng/mL sMSLN (x-fold change in H226 killing potency) [2]: 85.1 fold
B2	4.78 nM	0.611 nM	809000 MFI	0.0824 nM	11200 MFI	6.64 nM	170000 MFI	8.8 nM	0.00453 s⁻¹	515000 M⁻¹ s⁻¹	–	–	–	–	–	–	Fold-diff Window (mean Met-5A EC50 / mean H226 EC50) [1]: 28.5 fold; average mean H226 EC50, cell killing (LDH release) [1]: 0.00346 nM; average mean Met-5A EC50, cell killing (LDH release) [1]: 0.0987 nM; Delta 0-50 ng/mL sMSLN (x-fold change in H226 killing potency) [2]: 3.2 fold; Delta 0-500 ng/mL sMSLN (x-fold change in H226 killing potency) [2]: 23.8 fold; Kd [8]: 1.41 nM; koff [8]: 0.000578 s⁻¹; kon [8]: 411000 M⁻¹ s⁻¹
B3	–	–	–	–	–	–	–	–	–	–	3.05 nM	0.026 ratio	0.55 ratio	0.322 nM	0.000873 s⁻¹	2.72e+06 M⁻¹ s⁻¹	–
B4	–	–	–	–	–	–	–	–	–	–	1.01 nM	0.11 ratio	0.58 ratio	0.488 nM	0.000794 s⁻¹	1.63e+06 M⁻¹ s⁻¹	IC50 [11]: 0.14 nM; Maximum inhibition at highest sample conc. [11]: 99.2%; rel. IC50 (IC50, Amatuximab/IC50, scFv) [11]: 0.11 ratio
B5	–	–	–	–	–	–	–	–	–	–	1.13 nM	0.07 ratio	0.78 ratio	0.444 nM	0.00138 s⁻¹	3.11e+06 M⁻¹ s⁻¹	–
B6	6.45 nM	0.447 nM	609000 MFI	0.0877 nM	12000 MFI	5.55 nM	148000 MFI	6.45 nM	0.00149 s⁻¹	231000 M⁻¹ s⁻¹	–	–	–	–	–	–	Kd [8]: 1.39 nM; koff [8]: 0.000571 s⁻¹; kon [8]: 410000 M⁻¹ s⁻¹
B7	–	–	–	–	–	–	–	–	–	–	0.29 nM	0.52 ratio	0.61 ratio	0.177 nM	0.00013 s⁻¹	735000 M⁻¹ s⁻¹	IC50 [11]: 0.05 nM; Maximum inhibition at highest sample conc. [11]: 99.3%; rel. IC50 (IC50, Amatuximab/IC50, scFv) [11]: 0.29 ratio
